Assay results taken from publication PMC2582393 (Developmental cell, 2008).
Where a chain is given by its changes, count along the chain named.

B1: AIR-2 (C. elegans Aurora B kinase), recombinant, GST tag removed (enzyme, UniProt O01427 1-305, looked up)
chain: MENKPPVINLPEKETVNTPQKGGKFTINDFEIGRPLGKGKFGSVYLARTKTGHFHVAIKVLFKSQLISGGVEHQLEREIEIQSHLNHPNIIKLYTYFWDAKKIYLVLEYAPGGEMYKQLTVSKRFSEPTAAKYMYEIADALSYCHRKNVIHRDIKPENLLIGSQGELKIGDFGWSVHAPSNKRQTMCGTMDYLPPEMVNGADHSDAVDLWAIGVLCYEFLVGKPPFEHEDQSKTYAAIKAARFTYPDSVKKGARDLIGRLLVVDPKARCTLEQVKEHYWIQGMMEAKIRAEKQQKIEKEASLRNH
B2: GST-CDC-48.3 N (amino acids 1-225) (domain or fragment, C. elegans, UniProt Q21222 1-225, looked up)
chain: MSSAKKKPSLVTCPQCNAVVLTKDSLRHQDFCGKPVVESEIACAQNGTLRGFNVAVDKAEGFLPPDAVGWEKEHSILINQQTMESLGLLARQPVRIIHSSDSFIGIVWPCKEVALLKVSIISSRIARERMITLESCGRVEKLKSLSVTVKTSLTLNPALSGFLEAYLSHSYLQYNSSVDLKYLGQNVTVTPEEPIESKMSAMGIDDDKKRNSKVVSTAVGYKIQI

How the values were obtained:
Assay in all cases: pull-down
[1] = biological target: T1, GST-CDC-48.3 full-length (FL), amino acids 1-724 (C. elegans, UniProt Q21222 1-724)
T1 sequence (looked up): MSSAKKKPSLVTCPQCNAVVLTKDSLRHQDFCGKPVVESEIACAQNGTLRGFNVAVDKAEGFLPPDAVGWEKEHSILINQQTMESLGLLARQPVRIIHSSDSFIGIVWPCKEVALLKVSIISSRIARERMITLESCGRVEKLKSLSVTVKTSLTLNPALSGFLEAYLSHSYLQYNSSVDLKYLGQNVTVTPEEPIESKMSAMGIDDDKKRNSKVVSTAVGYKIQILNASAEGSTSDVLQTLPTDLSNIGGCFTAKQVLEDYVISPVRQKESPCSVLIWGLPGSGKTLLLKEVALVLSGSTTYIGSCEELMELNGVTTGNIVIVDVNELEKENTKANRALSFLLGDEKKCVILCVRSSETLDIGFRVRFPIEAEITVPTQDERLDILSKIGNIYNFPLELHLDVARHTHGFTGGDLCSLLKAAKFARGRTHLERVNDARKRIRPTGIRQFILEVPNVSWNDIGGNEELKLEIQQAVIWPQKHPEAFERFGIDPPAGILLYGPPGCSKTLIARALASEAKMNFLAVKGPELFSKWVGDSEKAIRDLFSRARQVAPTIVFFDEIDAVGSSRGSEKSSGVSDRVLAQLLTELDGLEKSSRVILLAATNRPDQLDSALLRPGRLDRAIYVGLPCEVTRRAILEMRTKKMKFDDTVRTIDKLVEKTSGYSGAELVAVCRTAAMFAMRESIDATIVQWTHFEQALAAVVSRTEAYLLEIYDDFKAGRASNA

[2] = biological target: T2, GST-CDC-48.3 (N+D1), amino acids 1-441 (C. elegans, UniProt Q21222 1-441)
T2 sequence (looked up): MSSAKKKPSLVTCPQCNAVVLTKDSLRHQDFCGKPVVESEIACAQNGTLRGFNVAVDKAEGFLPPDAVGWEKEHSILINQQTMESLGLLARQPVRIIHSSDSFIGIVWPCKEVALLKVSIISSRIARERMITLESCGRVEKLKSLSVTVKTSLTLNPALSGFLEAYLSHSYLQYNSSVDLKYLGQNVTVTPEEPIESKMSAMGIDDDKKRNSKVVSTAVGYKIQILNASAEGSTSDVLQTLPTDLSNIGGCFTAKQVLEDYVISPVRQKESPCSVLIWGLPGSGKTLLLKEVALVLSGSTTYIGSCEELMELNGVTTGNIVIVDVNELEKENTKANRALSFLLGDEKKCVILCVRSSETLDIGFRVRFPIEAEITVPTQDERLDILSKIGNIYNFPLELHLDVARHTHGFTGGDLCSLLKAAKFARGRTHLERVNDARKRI

[3] = biological target: T3, GST-CDC-48.3 (N+D1) K285T (C. elegans, UniProt Q21222 1-441, K285T)
T3 sequence (looked up): T2 sequence (looked up) with K285T

[4] = biological target: B1

Binder | binding result [1] | binding result [2] | binding result [3] | binding result [4]
B1 | binds | binds | binds | 
B2 |  |  |  | binds
